# Assay results: article PMC3160658
# How the values were obtained:
# [1] = molecular target: RAD52 Y104pCMF Y104pCMF (Homo sapiens) (UniProt P43351); test: FRET titration; conditions: scale: nM protein at maximum FRET
# RAD52 (Homo sapiens) [2] = molecular target: T1, RAD52 (Homo sapiens) (UniProt P43351); test: competition
# T1 sequence: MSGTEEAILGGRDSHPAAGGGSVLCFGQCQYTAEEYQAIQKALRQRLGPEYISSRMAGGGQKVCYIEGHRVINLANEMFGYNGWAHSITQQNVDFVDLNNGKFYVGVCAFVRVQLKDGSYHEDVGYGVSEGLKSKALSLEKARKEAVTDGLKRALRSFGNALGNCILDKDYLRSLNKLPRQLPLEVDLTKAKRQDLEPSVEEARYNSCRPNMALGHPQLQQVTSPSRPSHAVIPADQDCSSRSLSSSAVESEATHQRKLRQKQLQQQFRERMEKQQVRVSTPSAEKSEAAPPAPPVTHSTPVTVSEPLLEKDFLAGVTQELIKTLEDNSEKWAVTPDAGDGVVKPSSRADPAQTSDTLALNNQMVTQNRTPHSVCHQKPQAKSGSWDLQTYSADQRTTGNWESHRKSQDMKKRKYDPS
# RAD52 (Homo sapiens) [3] = molecular target: T1, RAD52 (Homo sapiens); test: single-molecule FRET; conditions: amino modifier C6 dT at last dT of gap
# [4] = molecular target: RAD52 Y104pCMF Y104pCMF (Homo sapiens) (UniProt P43351); test: single-molecule FRET; conditions: amino modifier C6 dT at last dT of gap
substance,measurement,setting,value
TTTTTTTTTTTTTTTTTTTTTTTTTTTTTT [Cy5-(dT)30-Cy3],binding signal,[1],5
linearized PhiX174 RFI dsDNA,binding signal (% ssDNA released at 150 nM nt dsDNA),RAD52 (Homo sapiens) [2],95.1
"TATGCTCTAAGCCATCCATGTATTTTTTTTTTTTTTTTTTTTTTTTTTTTCCCTAGATACCAGTAGATTCGGAAA / TTTCCGAATCTACTGGTATCTAGGG / TACATGGATGGCTTAGAGCATA [gapped DNA, 28-nt (dT) gap]",binding signal (% molecules in high FRET (wrapped) state),RAD52 (Homo sapiens) [3],9.47
same,binding signal (% molecules in high FRET (wrapped) state),[4],43.5
